Assay results taken from US20170268035, “GENOMIC PROBES” (Howard Hughes Medical Institute, published 2017).

T1: dCas9-Halo (D10A/H840A SpCas9, nuclease-deficient) (Streptococcus pyogenes, UniProt Q99ZW2 SEQ:8-1375)
T1 chain: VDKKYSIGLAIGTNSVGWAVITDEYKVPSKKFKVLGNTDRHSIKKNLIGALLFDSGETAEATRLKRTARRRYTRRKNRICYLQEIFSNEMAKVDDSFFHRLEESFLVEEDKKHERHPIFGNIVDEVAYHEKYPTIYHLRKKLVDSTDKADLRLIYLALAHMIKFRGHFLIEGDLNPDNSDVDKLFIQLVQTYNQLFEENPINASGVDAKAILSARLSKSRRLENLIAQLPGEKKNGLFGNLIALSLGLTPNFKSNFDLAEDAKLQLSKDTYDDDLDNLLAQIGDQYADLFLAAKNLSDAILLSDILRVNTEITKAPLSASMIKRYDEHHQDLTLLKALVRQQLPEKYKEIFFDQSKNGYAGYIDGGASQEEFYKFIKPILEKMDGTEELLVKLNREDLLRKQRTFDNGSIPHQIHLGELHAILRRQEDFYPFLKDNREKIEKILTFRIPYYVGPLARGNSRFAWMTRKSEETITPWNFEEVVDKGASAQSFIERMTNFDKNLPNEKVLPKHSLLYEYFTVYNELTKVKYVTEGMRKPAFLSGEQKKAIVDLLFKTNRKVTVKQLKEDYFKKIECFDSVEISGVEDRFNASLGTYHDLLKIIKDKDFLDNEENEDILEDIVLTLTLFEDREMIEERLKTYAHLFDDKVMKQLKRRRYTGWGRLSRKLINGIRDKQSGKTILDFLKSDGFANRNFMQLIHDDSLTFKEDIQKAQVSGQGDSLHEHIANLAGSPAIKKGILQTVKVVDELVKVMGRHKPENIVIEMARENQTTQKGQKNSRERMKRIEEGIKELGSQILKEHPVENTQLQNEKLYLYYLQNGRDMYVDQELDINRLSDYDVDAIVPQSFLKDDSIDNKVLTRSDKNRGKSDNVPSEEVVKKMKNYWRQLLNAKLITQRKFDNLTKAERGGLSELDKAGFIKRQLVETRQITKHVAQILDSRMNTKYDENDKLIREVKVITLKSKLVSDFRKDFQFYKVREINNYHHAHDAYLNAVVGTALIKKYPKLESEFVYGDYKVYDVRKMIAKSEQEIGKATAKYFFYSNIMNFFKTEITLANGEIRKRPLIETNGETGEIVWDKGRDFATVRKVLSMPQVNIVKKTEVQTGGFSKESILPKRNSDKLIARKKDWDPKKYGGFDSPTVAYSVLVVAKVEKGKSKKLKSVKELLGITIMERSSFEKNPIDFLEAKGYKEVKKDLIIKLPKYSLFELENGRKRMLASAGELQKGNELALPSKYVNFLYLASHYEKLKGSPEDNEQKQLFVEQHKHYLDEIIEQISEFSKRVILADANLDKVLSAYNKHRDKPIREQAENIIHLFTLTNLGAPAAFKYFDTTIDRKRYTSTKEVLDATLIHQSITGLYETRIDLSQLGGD

B1: DY547-sgMajSat (ssRNA)
RNA: CCAUAUUCCACGUCCUACAGGUUUAAGAGCUAUGCUGGAAACAGCAUAGCAAGUUUAAAUAAGGCUAGUCCGUUAUCAACUUGAAAAAGUGGCACCGAGUCGGUGCUUUUUUU
B2: DY547-sgMajSat ; major satellite target DNA (ssRNA ; dsDNA)
RNA: B1 RNA
DNA 1: TTTCTTGCCATATTCCACGTCCTACAGTGG
DNA 2: CCACTGTAGGACGTGGAATATGGCAAGAAA

Tests used:
[1] = target: T1, dCas9-Halo (D10A/H840A SpCas9, …); assay: EMSA; binary complex; 100-fold unlabelled sgRNA did not displace; room temperature; details: tags: N-terminal His6, C-terminal HaloTag; JF549 or JF646 Halo ligand labelled; label: 5'-DY547
Protocol: The stability of the complex is evident from the lack of competition. The control lane (ctrl) indicates the reaction product from a mixture of Cy5 DNA and 30-fold of unlabeled target DNA with dCas9/sgRNA binary complex. As expected, only a small fraction of Cy5-DNA was incorporated into the dCas9 tertiary complex. (B) Competition EMSAs assessing the stability of the binary complex. (B, Left) The indicated fluorescent binary complex was assembled at room temperature for 10 min and incubated further with the indicated fold-amounts of unlabeled sgMajSat at room temperature for 10 min. Unlabeled target DNA was added to the solution subsequently to form a tertiary complex followed by gel electrophoresis. (B, Right) The DY547 intensity of the bands of the tertiary complex plotted as a histogram. The stability of the binary complex of dCas9 and DY547-sgRNA is evident from the lack of competition. The control lane (ctrl) indicates the reaction product from the binary complex formed by a mixture of DY547-sgMajSat and 100-fold of unlabeled sgMajSat with dCas9 protein. As expected, only a small fraction of DY547-sgMajSat was incorporated into the dCas9 tertiary complex. (C) Schematic of two-color CASFISH methods. […]
To explore the possibility of applying multiple dCas9/sgRNA species in one step for multicolor imaging, we assessed the stability of the binary complex by sgRNA competition assay.

[2] = target: T1, dCas9-Halo (D10A/H840A SpCas9, …); assay: EMSA; PAM TGG; tertiary complex stable to 100-fold competitor DNA and 1.5 h with 30-fold; 37 C; details: tags: N-terminal His6, C-terminal HaloTag; JF549 or JF646 Halo ligand labelled; label: 5'-DY547; Cy5 (EMSA)
Protocol: The stability of the complex is evident from the lack of competition. Error bars represent SD of three independent experiments.
dCas9 protein and sgRNA were incubated together at room temperature for 10 min to examine the binary complex and subsequently were incubated with target DNA at 37° C. for 15 min to examine the tertiary complex. For the competition assay, an additional binary or tertiary complex reaction was performed after the addition of the competitor molecules. Resulting reaction mixtures were subjected to electrophoresis of 1% agarose gel in 1× Tris/borate/EDTA buffer containing 5 mM MgCl2 and were imaged with GE Typhoon Trio+Imagers.
Simultaneous imaging of multiple chromatin domains or genes is critical for studying chromatin interactions. To explore the possibility of using CASFISH to detect multiple DNA targets simultaneously, we first investigated the binding of CASFISH probes to target DNA by electrophoretic mobility shift assays (EMSA). […] To examine the stability of dCas9/sgMajSat binding to its target DNA, we carried out competition assays by adding excessive amounts of unlabeled target DNA to a preformed tertiary complex of JF549-dCas9/sgMajSat/Cy5-DNA. […]

Binder	binding result [1]	binding result [2]
B1	binds	
B2		binds
